Measurements as given in a protein production outcome set (Wang et al. 2014).

Assay: label from the status in PepcDB records

Sequence: MKIIVVGCGKIGYTIAKVLSEKKDIDVTVVDNNPNIFDKMVEPIDVIFISGNGANEKTLIEAGAKDADLIVSTTNADELNVLCCIMAERLGTKHSIARVRNPEYMLEFNKLWKDLGIDMVINPERQTAREISRILRYHAADDIVTFIGDRVELVSFKVSETPEYFVGKSVSQIFDNNMGILLAIVERENQALIPNGDLIFKESDIIWIMGRPSQIMKFFTLIKKGPKKGQEIMVIGGGKITHYLVELLNRHTTKANIKIIKKDRSKCESLYEALSSASLERRCLFIHGDGTNEELLIDEGIDTMDACVCLTDRDEENVFISLYAMRRGVKKVITKINYIHQNMAKSLGLWLGNIITPQYITAKTVIRYVDGLSGAVGRNIMTIHQIYSGDDGNVDAIEFQVNKKAKCIDTPIKKLKLKKGILIGCISRDFDIIIPSGETEIHIGDRVIIFSKNNDIRDLDDILEN
- protein production: failed

Sequence: MKIKPPLPTVTRTHARALRKELTDAERALWRCLRSNQLHDFKFRRQHPIPPYIADFCCIDAALIIELDGSQHQASSDQARTRWLQSKGWTVLRFWNNDVLFSLDAVVETIFKMVATPYPHPNPSPGGRGA
- protein production: failed

Sequence: MKILSVSYIYLLMGISSYSYANFDLGINEFNAPNELTELSELNTSNDNNAIIELINSTNSQVTIIQHNVNKTGSNKAKVKQTGYDNTAAVMQLGSNNVGLIAQNGTNNLATLKQLGFNHEGAILQEGNDNIAHLVQTGNGKQNVVNQTGDSNIAAAVNKNNGAGFSINQTGNQGIILVNGMDRFISIVN
- protein production: failed

Sequence: MKILVAFDGSDGAQKALGFAINFSKDCERMIVLYVSRDIISESGRLTYIPDTALERRDSEDEAILARARSILASSNIPFEIIKKNSDGVDVSKVIADTAKELECNMIITGTRKLRGLSKYLLGSVSAGIIAISNVPVIVVP
- protein production: failed

Sequence: MKILVCITHVPDTTSKITFADNKFNTAGVQFIIGPYDEYALSRAVELKEQSGGTVTVLNVGDAETEPTIRKALAIGADDAIRINAVPKDAGFVAAQIAAVAKSGGYDLILMGRESIDYNGGLVHGLVADALGMPCVTPIMKLDIENGVAKMTREIEGGKESVECALPFVAGCQEPIAEWKIPNMRGIMSARTKPLNVVEPVVVADDVVYGTFSLPAPKGACKMIDAANPEELLTLLRNEAKVL
- protein production: failed

Sequence: MKILWLIILVNLFLSCGNESKEKSNLGLRLRELEISGGGSESKIEVYKEFIEKEDKNILKIVNSIDKKARFFNLIGLEFFKLGQYGPAIEYFAKNLEINPNNYLSHFYIGVASYNLAKNLRVKDEVEKYIILAENSFLKSLSIRDDFKDSLFAISNMYVYDLDKQLEAKNYLNKLGDMGEDYFEFLMLRGANYYSLGDLGNAILFYDKASKKASTEEQKEGVSRIMSNLK
- protein production: failed

Sequence: MKILYIVLDGAADSPTSPRKTLEEASKPNIDSLGSHAVCGMVYTVKPGVAPQSDYATLSLLGYNPDEYYPGRGPLEAFGAGIEMRRGDIALRANFATVDPGTLRIIDRRVGRSLTSREARELASAVDGMELEDGEGTALFRATIGHRGVLVLRHRSKPLSDAISNTDPAYERRGRFSVALEKYEPFIKLSNPLVEDEAAVLAARMLNEFTLKAVEILDSHPVNLAREKRGLLKANAILSRDAGGLPEEKPPSFQERFGLRGASIVEMVVERGISRYIGLDDIRVEIEGRAREEVYREEAARAVEALETHDLVYVHLKGPDEPGHDGSFEGKIRAVEDIDKHFFAPLLDRLSSAGLEPAFVVTSDHATPWDVGAHSGDPVPLMISHQSIQGSIGKFSETVCLRGRLGTIIGGYRIIPKTLSLLAG
- protein production: not failed

Sequence: MKIMKTFALSSIASAAMLFCSSALAADGTITVDGKVTDRTCTINGGTPNFSVTMPTVSFSSLNGEGKTSARTPFTIELTNCTAGSTVATYFEPGPAVDINTSRLINQAPTASAATNVQVQLLGSNGSVIPIKAVGTTGAQDNSQWVAVNASGAASMHYYTEYYATGVSTAGSVVTNIQYTIIYQ
- protein production: failed

Sequence: MKIMTKALNRTTLGLALGLASSQLLAAGFALNEQSISGMGTGFAGRSSSADDASTVFGNPAGMSRIKREQISVGAAAVIAKTDIDNGRGTFGGSNDGDMVPVVGVPMGYYVKPIDDHWAFGLGVYVPFGLVTDYEKGFAGRYWGDKSHVQIVTFQPTVSYAFNDKVSIGFGPTINRIDGELTSAVPNRASLGTNDGKVKIKGDDTAIGFNAGILVQATDTTRLGLTYHSKVDYKLEGKTKVEGSGFGPFGGQKYDASLDISTPESVDFSITQQLDENWTVYAGSTWTRWSRLKDITVENSGVPTALASSIGTITEEQDWHDTWAHAIGASYKVNKEWTLRTGFSVDQSPTNNVNRSPRIPTGDRKIISFGAGWSPTDDLTIDVAYSYLREDETKIRDSSATKGSYSADYRNTAHGLGTSVTYRF
- protein production: failed

Sequence: MKINLDRTSSGFCIGVQGTIHVAEEKLAQSGELYCLGDVVHNEVEVKRLEALGMETIDIPAFEELRNAEVLIRAHGEPPSTYETARKNNLAITDTTCPVVAKLQRTAKMLHQLGYQVVIYGKKVHPEVIGINGQCDDEGVVIKHPDLSDPEEIAPLDLSRKTALISQTTMDVPGFYELKRNLEKLFAEHGHRNPGTQSGEWMAVRDIDITAEKTGALAMPKLVFKDTICRQVSSRNGKLRDFALANDCIVFAAGRKSSNGQVLYSICKDANPHSYFIEDVDEIRPEWFVGENGKPVESVGICGATSTPMWLLEKVANYIDKTFGDGSSNPNA
- protein production: failed

Sequence: MKINPRVIYLSIVFIFLVIMASNVAVADDLEAEKLTKVASNVALDSNPVWSPDGKEILFSRENGLYKVFSDGTGEMKLTSTKGKNFTSDYAWSPDGSKISYIENRYDTAAGPRSDLWIMNSNGEGKKQLLDTIWYRYYYIYTWFPTGSKILYAEIYEEIGGSYWEMDSDGSNKHNIGNMGIANGIALSPDASKIAICAHGPADVDYYIDVGKVGKDLTSFRYGLITHQTQSRQSQIWAPDGSKIVYYAGKNESYYEDENSEIYIVKADGTGRIQLTSDSANDNSPVFSPDGSKIVFVSDKAGNEDIWIMDADGKNKVQLTSDPASDSFPVWSPDGKKIAFWSNRGGNNNIYTLTLENEKTPVAAFCASQTSGNAPLKVSFTDKSTGTPTSWSWSFGDGKTSTLKNPLHIYSKAGKYTVSLTVKNAAGTNMKTITKYITVKTAPVKPIAAFSASPGSGKTPLKVKFTDTSTGTPTAWRWNFGDGSKSFLQNPIHKYSKTGIYTVDLTVKNAAGRNTVTKTDYITVVTKPVAEFSATPTTGKLPLTVEFTDKSTGVPTGWIWSFGDGTISREQNPKHQYLQEGKYKIILSVTNVAGSSTIKKINYIRVTTNTRPRIL
- protein production: failed

Sequence: MKIRPFLVALGLTTFAGAAHGANFEDLTQLLSTKKCPLCDLRGAGLVMVNLTRADLTGADLSGANLSGADLTGANLSGANLTSASLNGANLSGANLNGAITDGTDFREAYFDRATFINTNLETAYMQGAKAVPNTAGTPQLFYGWGLLETSKGNYQSALNHYDQALALDPEFAPGYLGRGLTLLKIGNEASAKQNVEYAQLLFEENQDEVGVKTSEQFLEDLANMQEARRQGAGNPQLDAIVRGVASMAFKYLLPLVGL
- protein production: failed

Sequence: MKISAIKTWLPLLIIIVLLGLFLGLGLNKYVSFASLRDNHEWLIAITKSHFYLVSFVFIIIYTVAVALSIPGAIFLTLIGGFLFGILWGTFLVVLSATLGATILFFAVQSSLGEVFSKRASGWVKRMRSGFKDNAFSYLLTLRLIPLFPFWVINIVSAVLGVSASTFIIATFIGIIPGSIVYVSVGNGLGELFAASLQPNLGIIFEPKFILPLLGLAALSLIPVFYKKKGKQGTEKMKDKDLFCDLAIIGGGSAGLSIAAGCSQLGLQVVLVEPNKMGGDCLNYGCIPSKTLLNTAKIFYQTKHSTVLGIQAKSVKIDFLQVMQQVHNVIACIAKNDSVERFTSLGVQVIQEAGHFIGPKQFKLKRKIIRAKHFVIATGSSPAIPPIQNLNKVSYLTNETIFNLKVQPEHLIVIGGGPIGCELAQAFAMLGSKVTILEAFTILPKDDADCVAIIRSQLESMQIALYEQIKINKIEESADKTISVHLENQDNPITITGSHLLVSTGRVANVDGLGLEKAGVQYTTRGINTNARLQTTNKKIYAIGDVTGPYQFTHMASYQAGIALRNIAFKWPAKVDYKAVPWVTYTEPELAHVGLLASEALKDPTLKITEFAFAEVDRAQAENKVNGKIKIITGKKAKILGVSIVGAHAGELILPWVIAVKERKSLRTFTDAIAAYPTFSEISKRVAGEYYKPFIFSSKIRTFVRWLNKLG
- protein production: failed

Sequence: MKISELGYDRAFLQLFDGNDFQLYDHQRMAIEQIRKGRNVVVSVPTAAGKTLIAYSAIYETFQRNLKSIYIVPLRSLAMEKFSELSRLRDLGLKVKMSIGDYDDSPDFIKRYDAVILTSEKADSLLHHDPYILNDVGLLVLDEIHTIGDESRGPTLETVASIARYVNPDVRILALSATVSNAMELASWLDASLIKSDFRPVPLKTGILYRDQLYLDGKRRSGVSINQIIRETVEDNGQVLMFVSSRKKAEDTARDLAQIFGSDANIKISSDETNVYDDMLNEILPRGVAFHHAGLSNDQRAFIEREFRARRIKVIVATPTLAAGVNLPARLVIVRDITRWGSDGISYLTNMEIKQMIGRAGRPGYDQYGIGLIYVSSQSSYEAAKDYLSTDPEPVVSYLGNEAKVRFNTLAAISMGLARSPSDIMKFYETTLFFSQNGKDLLEEKISASLKFLEKNGFIKQSPDLRTTQLGKVTSDLYIDPESALRLVDFFDGPADVDHAIYYISLCREIVPFNIKDDYSAMEFLDDIGLIDGDIDAAKTAIVLRDWISEASYKYLYDKYGIAPGDMQARISMADWLSYSLAKLSSIYKPEVRRMLEILNLRIKEGIREDILQLVLIPGVGRVRARRLYDAGLRSIEDVASASPDRIKAIYGFSDTLANAIIRRARTIASKEVR
- protein production: failed

Sequence: MKITVFGATGNVGNRVITEALLRGHEITAVLRNNARANEFDSSVKVVIGHADNVDDVVKWSDGQDLIISATRPPQGLESQLVDTAKALLSGLAQTKVRLLLVGGAASLTVPNSNGMLVVDDTDLVPTAWRDIALACLAQHKLCQENESVDWSYISPPAVIVPGERTGIFRTGSDELLVDEQGQSTISLEDFAIALLDEAEVVKHKRKRFTVAYLEHHHHHH
- protein production: failed

Sequence: MKITWFGHACFALEMEGKTIVTDPFDESVGYPIPNVTADVVTESHQHFDHNAHHLVKGNFRVIDRPGAYTVNGVKIKGVETFHDPSHGRERGKNIVFVFEGEGIKVCHLGDLGHVLTPAQVEEIGEIDVLLVPVGGTYTIGPKEAKEVADLLNAKVIIPMHYKTKYLKFNLLPVDDFLKLFDSYERVGNILELFEKPKERKVVVMEVQ
- protein production: not failed

Sequence: MKIVAITSCPNGIAHTYMAQEKLEQVAKEMGVDIKVETQGGVGAENVLTTQDIEEADGVIIAADKQVDLSRFVGKRLINENVREGIHNPRGLIQRIINQDAPIY
- protein production: not failed

Sequence: MKKAAAYTFCFLLLSGVGIILFMDIHPAFGGIPTTEQKEAYRELDNYVDGNFVNDVPTRRAFVDPSDTTSTTNTSASEVKDRNPVSPIPVYVIDWNKINSENDSLTWFGHSAFLLNVDNKQLLIDPMLGPVVSPVSFVGRNRYEYSEDIMLHLIDEMPPIDAVLITHDHYDHLDYRSIVKLNNKVSHFFVPLGCSAHLIRWGIPEEKITELNWWEETEYQGLTVALTPSRHSSGRNPFNIDTTLWGGWVILGNKTRVYTSGDSGYGPHFKQIGDKYGPFDITLIEGAQYDRNWPDLHMVPEQAIQANLDVGGKTMMLMHWGAFTLANHAWNEPIERALKEAKIREVNIIAPMIGETVLLDSDLQTSPTSWWDF
- protein production: failed

Sequence: MKKAIQFGAGNIGRGFIGGLLVKSGYHVVFADVNEYILNSINKDKKYTIHIRDVECIDEVIDNISAVSSIKEEIIDEIVQAEIITTAVGPLVLTKIASTIAKGIKARKEKGLTSNLNIIACENAIYASSSLKEEVLKYLNKEEVEYLEMYVGFPNCSVDRIVPPGKNENPLDVTVENFYEWNVEKQGFKGEIPTIVGMNLADNLMAYIERKLFTLNTGHAITAYIGYLKGYKTIEESIKDKFICDIVKSAMVESGEGLIKKYNFDSEVHYKYIDKILNRFKNPYLNDDVLRVGREPLRKLSDKDRLIKPLMTAKSYGLSVDNLILGIGAALHYNNSEDTQSVELQELIKSIGVKKAVAKIANISNDEELLNNIEKSYIFMKNL
- protein production: not failed
